Legend:
[1] = molecular target: type II flavin-containing monooxygenase from Janthinobacterium svalbardensis (Janthinobacterium svalbardensis PAMC27463); test: crystal structure; sitting-drop vapor diffusion in the cold room (4-8 °C); 16 mg/mL JsFMO, glycerol 20%, PEG 8000 13%, 100 mM Bis-Tris pH 6.5; four protomers forming two dimers in the asymmetric unit; FAD bound, no NADP+
[2] = molecular target: type II flavin-containing monooxygenase from Janthinobacterium svalbardensis (Janthinobacterium svalbardensis PAMC27463); test: SEC; size exclusion chromatography of purified JsFMO, with a calibration curve (Figure S2)
purified protein [3] = substrate: NC(=O)C1=CN([C@@H]2O[C@H](COP(=O)(O)OP(=O)(O)OC[C@H]3O[C@@H](n4cnc5c(N)ncnc54)[C@H](OP(=O)(O)O)[C@@H]3O)[C@@H](O)[C@H]2O)C=CC1; test: purified protein; type: biochemical, Janthinobacterium svalbardense; settings: 100 mM Tris-HCl pH 7.5, 500 mM NaCl, 10% glycerol, 1 mM DTT, 5 μM FAD, room temperature, co-substrate concentration not given
purified protein [4] = substrate: O=C1CC2C=CCC12; test: purified protein; type: biochemical, Janthinobacterium svalbardense; settings: 0.25 mM NADPH, 0.25-20 mM 1a, 100 mM Tris-HCl pH 7.5, 500 mM NaCl, 10% glycerol, 1 mM DTT, 5 μM FAD, room temperature
purified protein [5] = substrate: NC(=O)C1=CN([C@@H]2O[C@H](COP(=O)(O)OP(=O)(O)OC[C@H]3O[C@@H](n4cnc5c(N)ncnc54)[C@H](O)[C@@H]3O)[C@@H](O)[C@H]2O)C=CC1; test: purified protein; type: biochemical, Janthinobacterium svalbardense; settings: 100 mM Tris-HCl pH 7.5, 500 mM NaCl, 10% glycerol, 1 mM DTT, 5 μM FAD, room temperature, co-substrate concentration not given

“type II flavin-containing monooxygenase from Janthinobacterium svalbardensis (enzyme)” was tested, and the stoichiometry N [1] was 2 and the stoichiometry N [2] was 2.

B1: JsFMO (Janthinobacterium svalbardense) (protein)
chain: MQTDSNPHDLAVAGILEQLEGCLRASDSTGAAQLFEPDGYWRDLVLFTWNLKTLEGREQIAAMLAAQLGAVQPVSIRIADGEHAVEAGGVLQSWITVETNVARGVGFIRIRDGKIWTLLTTMSELKGFEEAKGGRRPMGAEHGARTDRSSWLEQREQEAKELGYARQPYCVIIGGGQGGIALGARLRQLNVPTIIIEKNARPGDSWRKRYKSLCLHDPVWYDHMPYIPFPDNWPVFTPKDKVGDWLEMYTKVMELNYWGSTSCESASFDAASGEWTVQVLRDGQPVTLKPKQLVLATGMSGKANMPKFKGMDVFQGEQQHSSQHPGPDAYAGKKVVVVGANNSAHDICAALWEAGVDVTMVQRSSTHIVKSDSLMDLALGDLYSERALAAGMTTNKADLTFASIPYKILANFQKPVFKAIRERDADFYARLEERGFMLDFGDDDSGLFMKYLRRGSGYYIDVGASELVAEGKIKLKSGVGVQELKSHSIVLSDGTELPADLVVYATGYGSMNGWAADLISPEVANKVGKVWGLGSATTKDPGPWEGEQRNMWKPTQQQALWFHGGNLHQSRHYSQYLSLQLKARMEGLNTPVYGQQEVHHLS
notes: full-length, codon-optimized in pET-28a(+)-TEV, E. coli ArcticExpress (DE3), C-terminal His-tag (stated for crystal structure); homodimer; SnoaL-like N-terminal domain, C-terminal helix residues 567-586
B1 gave a Km (purified protein [3]) of 14.4 ± 2.5 µM, a kcat (purified protein [3]) of 0.21 ± 0.1 s^–1 and a Km (purified protein [4]) of 1050 ± 230 µM. For the same molecule, the kcat (purified protein [4]) was 0.29 ± 0.01 s^–1, the Km (purified protein [5]) was 78.5 ± 7.5 µM and the kcat (purified protein [5]) was 0.23 ± 0.1 s^–1.

— PMC10028610, “A Cold-Active Flavin-Dependent Monooxygenase from Janthinobacterium svalbardensis Unlocks Applications of Baeyer–Villiger Monooxygenases at Low Temperature” (ACS Catalysis, 2023)
